{"source": "patent US5215888A", "about": "“Kit for assaying the cellular integrity of blood platelets” (Yeda Research and Development Co. Ltd., priority 1988, dated 1993)", "key": {"[1]": {"biological_target": "T1, PKA (Homo sapiens, UniProt P17612)", "T1 construct": "pure catalytic subunit of PKA from rabbit muscle; from tissue", "assay": "Inhibition of vitronectin phosphorylation by PKA in the presence of competing peptide", "format": "biochemical", "details": "for inhibition of the phosphorylation of vitronectin by PKA (in words): competitive", "text": "Peptides containing the sequence Arg-Arg-Pro-X-Arg (X=Ser, Thr, Ala, Cys, Tyr) inhibit the phosphorylation of vitronectin by PKA.\nFIG. 5 Inhibition of vitronectin phosphorylation by PKA in the presence of the indicated concentrations of a peptide identical in sequence to the site phosphorylated in vitronectin."}, "[2]": {"test_system": "vitronectin phosphorylation by PKA", "assay": "Phosphorylation of vitronectin at various pH in the presence or absence of heparin", "format": "biochemical", "details": "3-fold molar excess of heparin over vitronectin (2.7 μM); FIG. 6", "description": "The phosphorylation of vitronectin (p75 and mainly the p65 form) is affected by pH and by the presence of heparin in the reaction mixture (FIG. 6).\nFIG. 6 Vitronectin (2.7 μM was incubated for 2 h at 22° C. with C (1 μg/ml) in the presence of Mg(CH3 COO)2 (10 mM), [γ^32 ]ATP 50 μM, 0.5 Ci/mmol), (50 Mes at the indicated pH), and a 3-fold molar excess of heparin over vitronectin (where indicated). The reaction was terminated by boiling in Laemli's sample buffer and the extent of phosphorylation was analyzed by polyacrylamide gel electrophoresis and autoradiography."}}, "note": "Ends that are not written are not given here."}
{"substance": "-Arg-Arg-Pro-Ser-Arg- (RRPSR; printed: Arg-Arg-Pro-Ser-Arg-)", "values": [{"measurement": "inhibition of the phosphorylation of vitronectin by PKA (in words)", "setting": "[1]", "result": "competitively inhibit"}]}
{"substance": "SRRPSRAT", "values": [{"measurement": "Ki", "setting": "[1]; FIG. 5, peptide competes as alternative substrate, read-out: Ki concentration for inhibition of the phosphorylation of vitronectin by PKA", "result": 30, "unit": "µM"}, {"measurement": "inhibition of the phosphorylation of vitronectin by PKA (in words)", "setting": "[1]", "result": "compete with (inhibit)"}]}
{"substance": "heparin", "values": [{"measurement": "effect on the amount of phosphorylation of vitronectin", "setting": "[2]", "result": "increase"}]}
